Measurements from US20200199241A1 (Chugai, published 2020).

Target: T1, human FcRn (soluble human FcRn complexed with β2-microglobulin) (human, UniProt P61769 21-119, limits assumed)
T1 construct: also called hFcRn
Experiment: SPR, pH 7.0;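 also: antibodies captured on a Protein L sensor chip with human FcRn injected as analyte, KD calculated from fitted association and dissociation rate constants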

T1 sequence (chain, as listed by the source limits assumed, chain 1 of 2): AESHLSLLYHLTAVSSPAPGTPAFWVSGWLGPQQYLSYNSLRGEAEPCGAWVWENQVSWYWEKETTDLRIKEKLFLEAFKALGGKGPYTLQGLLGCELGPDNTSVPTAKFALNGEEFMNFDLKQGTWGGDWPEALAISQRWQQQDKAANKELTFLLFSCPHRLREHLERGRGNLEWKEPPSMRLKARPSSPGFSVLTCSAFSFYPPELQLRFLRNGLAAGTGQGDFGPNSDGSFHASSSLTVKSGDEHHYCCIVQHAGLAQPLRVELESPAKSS
T1 sequence (P61769 21-119 limits assumed, chain 2 of 2): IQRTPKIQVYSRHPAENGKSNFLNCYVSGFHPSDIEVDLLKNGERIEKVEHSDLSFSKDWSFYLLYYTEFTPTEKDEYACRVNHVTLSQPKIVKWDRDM

Binder | Kd [nM]
IgG1-F304 (antibody, EU numbering; copies: 2 + 2) heavy: QVQLQESGPGLVKPSETLSLTCAVSGHSISHDHAWSWVRQPPGEGLEWIGFISYSGITNYNPSLQGRVTISRDNSKNTLYLQMNSLRAEDTAVYYCARSLARTTAMDYWGEGTLVTVSSASTKGPSVFPLAPSSKSTSGGTAALGCLVKDYFPEPVTVSWNSGALTSGVHTFPAVLQSSGLYSLSSVVTVPSSSLGTQTYICNVNHKPSNTKVDKKVEPKSCDKTHTCPPCPAPELLGGPSVFLFPPKPKDTLWISRTPEVTCVVVDVSHEDPEVKFNWYVDGVEVHNAKTKPREEQYNSTYRVVSVLTPLHQDWLNGKEYKCKVSNKALPAPIEKTISKAKGQPREPQVYTLPPSRDELTKNQVSLTCLVKGFYPSDIAVEWESNGQPENNYKTTPPVLDSDGSFFLYSKLTVDKSRWQQGNVFSCSVYHEALHYHYTQKSLSLSP light: not shown | 16
IgG1-F315 (antibody, EU numbering; copies: 2 + 2) heavy: QVQLQESGPGLVKPSETLSLTCAVSGHSISHDHAWSWVRQPPGEGLEWIGFISYSGITNYNPSLQGRVTISRDNSKNTLYLQMNSLRAEDTAVYYCARSLARTTAMDYWGEGTLVTVSSASTKGPSVFPLAPSSKSTSGGTAALGCLVKDYFPEPVTVSWNSGALTSGVHTFPAVLQSSGLYSLSSVVTVPSSSLGTQTYICNVNHKPSNTKVDKKVEPKSCDKTHTCPPCPAPELLGGPKVFLFPPKPKDTLYISRTPEVTCVVVDVSHEDPEVKFNWYVDGVEVHNAKTKPREEQYNSTYRVVSVLTVLHQDWLNGKEYKCKVSNKALPAPIEKTISKAKGQPREPQVYTLPPSRDELTKNQVSLTCLVKGFYPSDIAVEWESNGQPENNYKTTPPVLDSDGSFFLYSKLTVDKSRWQQGNVFSCSVYHEALHYHYTQKSLSLSP light: not shown | 680
IgG1-F307 (antibody, EU numbering; copies: 2 + 2) heavy: QVQLQESGPGLVKPSETLSLTCAVSGHSISHDHAWSWVRQPPGEGLEWIGFISYSGITNYNPSLQGRVTISRDNSKNTLYLQMNSLRAEDTAVYYCARSLARTTAMDYWGEGTLVTVSSASTKGPSVFPLAPSSKSTSGGTAALGCLVKDYFPEPVTVSWNSGALTSGVHTFPAVLQSSGLYSLSSVVTVPSSSLGTQTYICNVNHKPSNTKVDKKVEPKSCDKTHTCPPCPAPELLGGPKVFLFPPKPKDTLWISRTPEVTCVVVDVSHEDPEVKFNWYVDGVEVHNAKTKPREEQYNSTYRVVSVLTPLHQDWLNGKEYKCKVSNKALPAPIEKTISKAKGQPREPQVYTLPPSRDELTKNQVSLTCLVKGFYPSDIAVEWASNGQPENNYKTTPPVLDSDGSFFLYSKLTVDKSRWQQGNVFSCSVMHEALHYHYTQKSLSLSP light: not shown | 36
IgG1-F312 (antibody, EU numbering; copies: 2 + 2) heavy: QVQLQESGPGLVKPSETLSLTCAVSGHSISHDHAWSWVRQPPGEGLEWIGFISYSGITNYNPSLQGRVTISRDNSKNTLYLQMNSLRAEDTAVYYCARSLARTTAMDYWGEGTLVTVSSASTKGPSVFPLAPSSKSTSGGTAALGCLVKDYFPEPVTVSWNSGALTSGVHTFPAVLQSSGLYSLSSVVTVPSSSLGTQTYICNVNHKPSNTKVDKKVEPKSCDKTHTCPPCPAPELLGGPKVFLFPPKPKDTLWISRTPEVTCVVVDVSHEDPEVKFNWYVDGVEVHNAKTKPREEQYNSTYRVVSVLTVLHQDWLNGKEYKCKVSNKALPAPIEKTISKAKGQPREPQVYTLPPSRDELTKNQVSLTCLVKGFYPSDIAVAWASNGQPENNYKTTPPVLDSDGSFFLYSKLTVDKSRWQQGNVFSCSVFHEALHYHYTQKSLSLSP light: not shown | 450
IgG1-F316 (antibody, EU numbering; copies: 2 + 2) heavy: QVQLQESGPGLVKPSETLSLTCAVSGHSISHDHAWSWVRQPPGEGLEWIGFISYSGITNYNPSLQGRVTISRDNSKNTLYLQMNSLRAEDTAVYYCARSLARTTAMDYWGEGTLVTVSSASTKGPSVFPLAPSSKSTSGGTAALGCLVKDYFPEPVTVSWNSGALTSGVHTFPAVLQSSGLYSLSSVVTVPSSSLGTQTYICNVNHKPSNTKVDKKVEPKSCDKTHTCPPCPAPELLGGPKVFLFPPKPKDTLYISRTPEVTCVVVDVSHEFPEVKFNWYVDGVEVHNAKTKPREEQYNSTYRVVSVLTVLHQDWLNGKEYKCKVSNKALPAPIEKTISKAKGQPREPQVYTLPPSRDELTKNQVSLTCLVKGFYPSDIAVEWESNGQPENNYKTTPPVLDSDGSFFLYSKLTVDKSRWQQGNVFSCSVYHEALHYHYTQKSLSLSP light: not shown | 700
IgG1-F313 (antibody, EU numbering; copies: 2 + 2) heavy: QVQLQESGPGLVKPSETLSLTCAVSGHSISHDHAWSWVRQPPGEGLEWIGFISYSGITNYNPSLQGRVTISRDNSKNTLYLQMNSLRAEDTAVYYCARSLARTTAMDYWGEGTLVTVSSASTKGPSVFPLAPSSKSTSGGTAALGCLVKDYFPEPVTVSWNSGALTSGVHTFPAVLQSSGLYSLSSVVTVPSSSLGTQTYICNVNHKPSNTKVDKKVEPKSCDKTHTCPPCPAPELLGGPKVFLFPPKPKDTLYISRTPEVTCVVVDVSHEDPEVKFNWYVDGVEVHNAKTKPREEQYNSTYRVVSVLPVLHQDWLNGKEYKCKVSNKALPAPIEKTISKAKGQPREPQVYTLPPSRDELTKNQVSLTCLVKGFYPSDIAVEWESNGQPENNYKTTPPVLDSDGSFFLYSKLTVDKSRWQQGNVFSCSVYHEALHYHYTQKSLSLSP light: not shown | 650
IgG1-F306 (antibody, EU numbering; copies: 2 + 2) heavy: QVQLQESGPGLVKPSETLSLTCAVSGHSISHDHAWSWVRQPPGEGLEWIGFISYSGITNYNPSLQGRVTISRDNSKNTLYLQMNSLRAEDTAVYYCARSLARTTAMDYWGEGTLVTVSSASTKGPSVFPLAPSSKSTSGGTAALGCLVKDYFPEPVTVSWNSGALTSGVHTFPAVLQSSGLYSLSSVVTVPSSSLGTQTYICNVNHKPSNTKVDKKVEPKSCDKTHTCPPCPAPELLGGPSVFLFPPKPKDTLWISRTPEVTCVVVDVSHEDPEVKFNWYVDGVEVHNAKTKPREEQYNSTYRVVSVLTPLHQDWLNGKEYKCKVSNKALPAPIEKTISKAKGQPREPQVYTLPPSRDELTKNQVSLTCLVKGFYPSDIAVEWASNGQPENNYKTTPPVLDSDGSFFLYSKLTVDKSRWQQGNVFSCSVMHEALHYHYTQKSLSLSP light: not shown | 36
IgG1-F310 (antibody, EU numbering; copies: 2 + 2) heavy: QVQLQESGPGLVKPSETLSLTCAVSGHSISHDHAWSWVRQPPGEGLEWIGFISYSGITNYNPSLQGRVTISRDNSKNTLYLQMNSLRAEDTAVYYCARSLARTTAMDYWGEGTLVTVSSASTKGPSVFPLAPSSKSTSGGTAALGCLVKDYFPEPVTVSWNSGALTSGVHTFPAVLQSSGLYSLSSVVTVPSSSLGTQTYICNVNHKPSNTKVDKKVEPKSCDKTHTCPPCPAPELLGGPKVFLFPPKPKDTLWISRTPEVTCVVVDVSHEDPEVKFNWYVDGVEVHNAKTKPREEQYNSTYRVVSVLTPLHQDWLNGKEYKCKVSNKALPAPIEKTISKAKGQPREPQVYTLPPSRDELTKNQVSLTCLVKGFYPSDIAVEWASNGQPENNYKTTPPVLDSDGSFFLYSKLTVDKSRWQQGNVFSCSVIHEALHYHYTQKSLSLSP light: not shown | 94
IgG1-F317 (antibody, EU numbering; copies: 2 + 2) heavy: QVQLQESGPGLVKPSETLSLTCAVSGHSISHDHAWSWVRQPPGEGLEWIGFISYSGITNYNPSLQGRVTISRDNSKNTLYLQMNSLRAEDTAVYYCARSLARTTAMDYWGEGTLVTVSSASTKGPSVFPLAPSSKSTSGGTAALGCLVKDYFPEPVTVSWNSGALTSGVHTFPAVLQSSGLYSLSSVVTVPSSSLGTQTYICNVNHKPSNTKVDKKVEPKSCDKTHTCPPCPAPELLGGPKVFLFPPKPKDTLYISRTPEVTCVVVDVSHEFPEVKFNWYVDGVEVHNAKTKPREEQYNSTYRVVSVLTPLHQDWLNGKEYKCKVSNKALPAPIEKTISKAKGQPREPQVYTLPPSRDELTKNQVSLTCLVKGFYPSDIAVEWESNGQPENNYKTTPPVLDSDGSFFLYSKLTVDKSRWQQGNVFSCSVYHEALHYHYTQKSLSLSP light: not shown | 110
IgG1-F311 (antibody, EU numbering; copies: 2 + 2) heavy: QVQLQESGPGLVKPSETLSLTCAVSGHSISHDHAWSWVRQPPGEGLEWIGFISYSGITNYNPSLQGRVTISRDNSKNTLYLQMNSLRAEDTAVYYCARSLARTTAMDYWGEGTLVTVSSASTKGPSVFPLAPSSKSTSGGTAALGCLVKDYFPEPVTVSWNSGALTSGVHTFPAVLQSSGLYSLSSVVTVPSSSLGTQTYICNVNHKPSNTKVDKKVEPKSCDKTHTCPPCPAPELLGGPKVFLFPPKPKDTLWISRTPEVTCVVVDVSHEDPEVKFNWYVDGVEVHNAKTKPREEQYNSTYRVVSVLTPLHQDWLNGKEYKCKVSNKALPAPIEKTISKAKGQPREPQVYTLPPSRDELTKNQVSLTCLVKGFYPSDIAVEWESNGQPENNYKTTPPVLDSDGSFFLYSKLTVDKSRWQQGNVFSCSVFHEALHYHYTQKSLSLSP light: not shown | 28
IgG1-F305 (antibody, EU numbering; copies: 2 + 2) heavy: QVQLQESGPGLVKPSETLSLTCAVSGHSISHDHAWSWVRQPPGEGLEWIGFISYSGITNYNPSLQGRVTISRDNSKNTLYLQMNSLRAEDTAVYYCARSLARTTAMDYWGEGTLVTVSSASTKGPSVFPLAPSSKSTSGGTAALGCLVKDYFPEPVTVSWNSGALTSGVHTFPAVLQSSGLYSLSSVVTVPSSSLGTQTYICNVNHKPSNTKVDKKVEPKSCDKTHTCPPCPAPELLGGPSVFLFPPKPKDTLYISREPEVTCVVVDVSHEDPEVKFNWYVDGVEVHNAKTKPREEQYNSTYRVVSVLTPLHQDWLNGKEYKCKVSNKALPAPIEKTISKAKGQPREPQVYTLPPSRDELTKNQVSLTCLVKGFYPSDIAVEWASNGQPENNYKTTPPVLDSDGSFFLYSKLTVDKSRWQQGNVFSCSVMHEALHYHYTQKSLSLSP light: not shown | 27
IgG1-F308 (antibody, EU numbering; copies: 2 + 2) heavy: QVQLQESGPGLVKPSETLSLTCAVSGHSISHDHAWSWVRQPPGEGLEWIGFISYSGITNYNPSLQGRVTISRDNSKNTLYLQMNSLRAEDTAVYYCARSLARTTAMDYWGEGTLVTVSSASTKGPSVFPLAPSSKSTSGGTAALGCLVKDYFPEPVTVSWNSGALTSGVHTFPAVLQSSGLYSLSSVVTVPSSSLGTQTYICNVNHKPSNTKVDKKVEPKSCDKTHTCPPCPAPELLGGPKVFLFPPKPKDTLWISRTPEVTCVVVDVSHEDPEVKFNWYVDGVEVHNAKTKPREEQYNSTYRVVSVLTPLHQDWLNGKEYKCKVSNKALPAPIEKTISKAKGQPREPQVYTLPPSRDELTKNQVSLTCLVKGFYPSDIAVEWASNGQPENNYKTTPPVLDSDGSFFLYSKLTVDKSRWQQGNVFSCSVYHEALHYHYTQKSLSLSP light: not shown | 19
IgG1-F314 (antibody, EU numbering; copies: 2 + 2) heavy: QVQLQESGPGLVKPSETLSLTCAVSGHSISHDHAWSWVRQPPGEGLEWIGFISYSGITNYNPSLQGRVTISRDNSKNTLYLQMNSLRAEDTAVYYCARSLARTTAMDYWGEGTLVTVSSASTKGPSVFPLAPSSKSTSGGTAALGCLVKDYFPEPVTVSWNSGALTSGVHTFPAVLQSSGLYSLSSVVTVPSSSLGTQTYICNVNHKPSNTKVDKKVEPKSCDKTHTCPPCPAPELLGGPSVFLFPPKPKDTLYISREPEVTCVVVDVSHEDPEVKFNWYVDGVEVHNAKTKPREEQYNSTYRVVSVLTVLHAAWLNGKEYKCKVSNKALPAPIEKTISKAKGQPREPQVYTLPPSRDELTKNQVSLTCLVKGFYPSDIAVEWESNGQPENNYKTTPPVLDSDGSFFLYSKLTVDKSRWQQGNVFSCSVYHEALHYHYTQKSLSLSP light: not shown | 320
